The results in this text go back to patent publication US7166475B2, “Compositions and methods for monitoring the modification state of a pair of polypeptides” (Cyclacel Ltd., priority 1999, dated 2007).

No end group written: not given here. rhodamine = not defined here

The test system of one data set is chymotrypsin. Briefly: Time-course digestion with chymotrypsin, MALDI-TOF. Format: biochemical. On the procedure: A time-course digestion of Peptide A with chymotrypsin is analysed by MALDI-TOF mass spectrometry. On the protein matrix (MS, denoted SA on each spectrogram) the Peptide A substrate as 4245 Da is evident. […] The C-terminal fragment appears to be cleaved at a second site (after L-26) generating a product of 1100 Da, although the final peptide fragment of about 990 Da is not observed in the MS.

The format of data set [1] is physicochemical. The conditions noted are these: 10 μM peptide, pH 7.0, 20° C. On the procedure:
The circular dichroism (measured in units of ellipticity) of proteins at 222 nm provides a measure of the amount of a-helix present in the structure, with a large, negative ellipticity indicting a high level of helicity. The coiled-coil has a distinctive a-helical CD spectrum with minima at 222 nm and 208 nm (O'Shea et al., 1989, Science, 243: 538–542). The CD spectra of the unmodified Zip3 and its phosphorylated form (‘Zip3P’) are determined at a sample concentration of 10 μM in 150 mM KCB, 42.2 mM K2HPO4, 7.8 mM KH2PO4, pH 7.0 at 20° C.; spectra are recorded using a 1 mm pathlength cell in a Jasco J-715 spectropolarimeter with a Jasco PTC-348W Peltier temperature control unit. Peptide concentration is determined by tyrosine absorbance at 280 nm in 6M GuHCl. […] The effipticities of Zip3 and Zip3P at 222 nm with increasing temperature are measured. The steep portion of the sigmoid curve for Zip3 indicates the unfolding of the molecule. It is clear that this leucine zipper peptide begins to unfold at around 35° C. and is completely unfolded by 70° C. […]
The circular dichroism (measured in units of ellipticity) of proteins at 222 nm provides a measure of the amount of a-helix present in the structure, with a large, negative ellipticity indicting a high level of helicity. […] In all experiments described herein, peptide concentration is determined by tyrosine absorbance at 280 nm in 6M GnHCl.

For the next data set, the system named is carboxypeptidase. In words: Carboxypeptidase digestion, FRET. It is filed as biochemical.
Another data set deals with aminopeptidase. Briefly: Aminopeptidase digestion, FRET. Format: biochemical.
The test system of a further data set is peptide D. In words: FRET of fluorescein-labelled peptides N and C with rhodamine-labelled peptide D. Format: binding. Particulars: no peptidase.
The target in the next data set is PKA (Homo sapiens, UniProt P17612). In words: Timecourse of phosphorylation by PKA (32P-ATP). Particulars: 0.2 mM ATP. It is filed as biochemical. The procedure: A timecourse of phosphorylation of these peptides by PKA is run in 50 mM histidine/HCl (pH 7.0), 5 mM MgSO4, 5 mM NaF, 0.05 mM EGTA, 120 mM kcb with 0.2 mM ATP (30.9 cpm/pmol ^32P-ATP) and 0.5 μM PKA. […] Zip4T is also phosphorylated, at a slower rate, with full phosphorylation achieved in 30 minutes in this assay. In this assay, the difference in cpm recovered between the Zip4 peptides and PL919Y is due to the difference in recovery of these peptides on P81 paper. The plateau indicates full phosphorylation.
A set of timecourses of phosphorylation is performed on Zip4S using PKA and Ca^2+/Calmodulin-dependent Protein Kinase (CaMK-II), together with positive and negative controls for CaMK-II (these controls confirm that the preparation of CaMK-II posesses the expected characteristics of that enzyme). PKA phosphorylation is performed in 50 mM histidine/HCl (pH 7.0), 5 mM MgSO4, 5 mM NaF, 0.05 mM EGTA, 120 mM kcb with 0.2 mM ATP (39.72 cpm/pmol ^32P-ATP) and 0.25 μM PKA. CaMK-II phosphorylation is performed in 50 mM histidine/HCl (pH 7.0), 5 mM MgSO4, 5 mM NaF, 120 mM kcb, 0.5 mM Ca^2+, 0.037 mg/ml calmodulin with 0.2 mM ATP (39.72 cpm/pmol ^32P-ATP) and 10% crude CaMK-II. In the Ca^2+-free experiment, Ca^2+ is replaced by 0.05 mM EGTA. […]

Data set [2] has as its system Ca^2+/Calmodulin-dependent Protein Kinase (CaMK-II). Briefly: Timecourse of phosphorylation by CaMK-II (32P-ATP). Format: biochemical. The conditions noted are these: 10% crude CaMK-II, 0.5 mM Ca^2+, 0.037 mg/ml calmodulin, 0.2 mM ATP. On the procedure:
A set of timecourses of phosphorylation is performed on Zip4S using PKA and Ca^2+/Calmodulin-dependent Protein Kinase (CaMK-II), together with positive and negative controls for CaMK-II (these controls confirm that the preparation of CaMK-II posesses the expected characteristics of that enzyme). PKA phosphorylation is performed in 50 mM histidine/HCl (pH 7.0), 5 mM MgSO4, 5 mM NaF, 0.05 mM EGTA, 120 mM kcb with 0.2 mM ATP (39.72 cpm/pmol ^32P-ATP) and 0.25 μM PKA. CaMK-II phosphorylation is performed in 50 mM histidine/HCl (pH 7.0), 5 mM MgSO4, 5 mM NaF, 120 mM kcb, 0.5 mM Ca^2+, 0.037 mg/ml calmodulin with 0.2 mM ATP (39.72 cpm/pmol ^32P-ATP) and 10% crude CaMK-II. In the Ca^2+-free experiment, Ca^2+ is replaced by 0.05 mM EGTA. […] Such specificity of a modification site in a polypeptide according to the invention is a clear advantage for use of the invention in an intracellular assay, or for measuring the activity of a particular polypeptide modifying agent in a complex mixture such as a cell lysate.

In a further data set the target is T1, Zip4SF (fluorescein label (on the cysteine residue, by analogy with Zip3F)).
T1 construct: read as Zip4S with fluorescein, like Zip3F; also called Zip4S labelled with fluorescein
T1 peptide: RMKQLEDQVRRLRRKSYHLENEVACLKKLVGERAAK
Briefly: FRET in solution.

For data set [3], the target named is T2, Peptide 4 (SEQ ID NO. 56) (fluorescein label, by the procedure of Example 10 (not restated)).
T2 construct: Immobilised peptide of the caspase reporter; also called Peptides 4
T2 peptide: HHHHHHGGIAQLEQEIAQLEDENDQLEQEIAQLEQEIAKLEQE
In words: FRET, procedure of Example 10.

Another data set deals with T3, Pep 1.
T3 construct: Unphosphorylated; immobilised by its His tag on a Ni-NTA sensor chip in the Biacore assay
T3 peptide: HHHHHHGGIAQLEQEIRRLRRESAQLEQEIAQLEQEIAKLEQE
Briefly: statement in Example 3.

Data set [4] has as its target T4, Peptide 3 (SEQ ID NO. 54), labelled with fluorescein (fluorescein at the lysine residue).
T4 construct: also called peptides 3
T4 peptide: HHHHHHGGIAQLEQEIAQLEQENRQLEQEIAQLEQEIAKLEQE
In words: FRET, Peptide 3 immobilised.

The target of data set [5] is T5, Peptide N, fluorescein-labelled (fluorescein label at the K residue).
T5 peptide: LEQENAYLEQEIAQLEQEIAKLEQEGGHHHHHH
In words: FRET, peptide N immobilised.

For data set [6], the target named is T6, Peptide C, fluorescein-labelled (fluorescein label (site said to be 'the C and K residues as before', but the entry has neither Cys nor Lys)).
T6 peptide: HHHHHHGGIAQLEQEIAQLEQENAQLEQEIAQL
In words: FRET, peptide C immobilised.

The target in data set [7] is T7, Pep 1F (Pep 1 peptide labelled with fluorescein) (not fully specified; fluorescein label; the lysine residue is inserted for labelling purposes).
T7 construct: Unphosphorylated
T7 peptide: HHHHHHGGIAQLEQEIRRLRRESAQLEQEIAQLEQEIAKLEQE
In words: FRET in solution, 50 µM Pep 1F and 50 µM Pep 2R, 37 °C. On the procedure:
Fluorescence emission of fluorescein is measured at 520 nm by exciting at appropriate wavelength (450 nm). Pep 2R (Pep 2 labelled with rhodamine) at concentrations equal to that of Pep 1F (50 μM) is added and the fluorescence emission of Pep 1F and Pep 2R are monitored.

Consider “HHHHHHGGIAQLEQEIAQLEQENAYLEQEIAQLEQEIAKLEQE [Peptide A]”, for which, in the data set with chymotrypsin, the digestion by chymotrypsin result is “degraded completely over two hours”. The “CD spectrum (structure indicated)” value in data set [1] is on record as “classic coiled-coil”.
Consider “LEQENAYLEQEIAQLEQEIAKLEQEGGHHHHHH [Peptide N]”, for which the “FRET of pair with peptide D after addition of carboxypeptidase” value with carboxypeptidase is reported as “not affected”. In addition, the “FRET of pair with peptide D after addition of aminopeptidase” value in the data set with aminopeptidase was “complete loss of FRET”. In addition, the “FRET in the presence of rhodamine-labelled peptide D” value with peptide D is reported as “FRET is observed”.
For the molecule “R MKQLEDQ VRRLRRK SYHLENE VACLKKL VGERAAK (RMKQLEDQVRRLRRKSYHLENEVACLKKLVGERAAK) [Zip4S]”, in the data set with PKA (0.25 μM PKA), the “extent of phosphorylation by PKA” value is “complete phosphorylation”. In addition, the “phosphorylation by PKA (substrate quality, rate)” value with PKA (0.5 μM PKA, compared with known substrate PL919Y) is on record as “good substrate”. For the same molecule, the “phosphorylation by CaMK-II” value in data set [2] is reported as “unable to phosphorylate”.

B1: Zip4SR (peptide)
peptide: RMKQLEDQVRRLRRKSYHLENEVACLKKLVGERAAK
modifications: also: rhodamine label, read from undefined name by analogy with Zip3R
notes: read as Zip4S with rhodamine, like Zip3R; also called Zip4S labelled with rhodamine
For B1, the binding result with Zip4SF is recorded as “binds”.

B2: Peptide 44 (SEQ ID NO. 57) (peptide)
peptide: IAQLKQKIAQLKQKNAQLKQKIAQLKQKICQLKQK
modifications: also: rhodamine label by procedure, site not given here
Take B2: in [3], the binding result is listed as “binds”.

B3: Pep 2 (peptide)
peptide: IAQLKQEIAQLKQKNAQLKQKIAQLKQKICQLKQK
As to B3, the binding result with Pep 1 is “binds”.

B4: peptide 33 (SEQ ID NO. 55), labelled with rhodamine (peptide)
peptide: IAQLKQKIAQLKQKNAQLKQKIAQLKQKIC(rhodamine)QLKQK
modifications: reading uncertain
Turning to B4, in data set [4], the binding result was “binds”.

B5: Peptide D, rhodamine-labelled (peptide)
peptide: IAQLKQKIAQLKQKNAQLKQKIAQLKQKIC(rhodamine)QLKQK
modifications: reading uncertain
Take B5: the binding result in data set [5] and in [6] was “binds” in each case.

B6: Pep 2R (Pep 2 peptide labelled with rhodamine) (peptide)
peptide: IAQLKQEIAQLKQKNAQLKQKIAQLKQKIC(rhodamine)QLKQK
modifications: reading uncertain
For the molecule B6, the binding result in data set [7] was “binds”.
